{
  "source": "patent US20110091994A1",
  "about": "“Methods for Screening Compounds for Treating and/or Preventing an Hepatitis C Virus Infection” (priority 2008, published 2011);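 as to IMAP Y2H IMAP1 (number of IST): yeast two-hybrid screens using HCV genotype 1b proteins fused to Gal4-DB as baits against prey cDNA libraries from human spleen and foetal brain, IMAP1 via transformation and IMAP2 via mating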;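 as to IMAP Y2H IMAP2 (number of IST): yeast two-hybrid screens using HCV genotype 1b proteins fused to Gal4-DB as baits against prey cDNA libraries from human spleen and foetal brain, IMAP1 via transformation and IMAP2 via mating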;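 as to Interaction with viral protein: yeast two-hybrid screens using HCV genotype 1b proteins fused to Gal4-DB as baits against prey cDNA libraries from human spleen and foetal brain, IMAP1 via transformation and IMAP2 via mating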",
  "molecules": {"B1": {"name": "N-PAC (protein, UniProt Q49A26 1-553, looked up)", "Cytokine-like nuclear factor …": "MAAVSLRLGDLVWGKLGRYPPWPGKIVNPPKDLKKPRGKKCFFVKFFGTEDHAWIKVEQLKPYHAHKEEMIKINKGKRFQQAVDAVEEFLRRAKGKDQTSSHNSSDDKNRRNSSEERSRPNSGDEKRKLSLSEGKVKKNMGEGKKRVSSGSSERGSKSPLKRAQEQSPRKRGRPPKDEKDLTIPESSTVKGMMAGPMAAFKWQPTASEPVKDADPHFHHFLLSQTEKPAVCYQAITKKLKICEEETGSTSIQAADSTAVNGSITPTDKKIGFLGLGLMGSGIVSNLLKMGHTVTVWNRTAEKCDLFIQEGARLGRTPAEVVSTCDITFACVSDPKAAKDLVLGPSGVLQGIRPGKCYVDMSTVDADTVTELAQVIVSRGGRFLEAPVSGNQQLSNDGMLVILAAGDRGLYEDCSSCFQAMGKTSFFLGEVGNAAKMMLIVNMVQGSFMATIAEGLTLAQVTGQSQQTLLDILNQGQLASIFLDQKCQNILQGNFKPDFYLKYIQKDLRLAIALGDAVNHPTPMAAAANEVYKRAKALDQSDNDMSAVYRAYIH"}, "B2": {"name": "NUP62 (protein, UniProt P37198 2-522, looked up)", "Nuclear pore glycoprotein p62": "SGFNFGGTGAPTGGFTFGTAKTATTTPATGFSFSTSGTGGFNFGAPFQPATSTPSTGLFSLATQTPATQTTGFTFGTATLASGGTGFSLGIGASKLNLSNTAATPAMANPSGFGLGSSNLTNAISSTVTSSQGTAPTGFVFGPSTTSVAPATTSGGFSFTGGSTAQPSGFNIGSAGNSAQPTAPATLPFTPATPAATTAGATQPAAPTPTATITSTGPSLFASIATAPTSSATTGLSLCTPVTTAGAPTAGTQGFSLKAPGAASGTSTTTSTAATATATTTSSSSTTGFALNLKPLAPAGIPSNTAAAVTAPPGPGAAAGAAASSAMTYAQLESLINKWSLELEDQERHFLQQATQVNAWDRTLIENGEKITSLHREVEKVKLDQKRLDQELDFILSQQKELEDLLSPLEELVKEQSGTIYLQHADEEREKTYKLAENIDAQLKRMAQDLKDIIEHLNTSGAPADTSDPLQQICKILNAHMDSLQWIDQNSALLQRKVEEVTKVCEGRRKEQERSFRITFD"}, "B3": {"name": "PDLIM5 (protein, UniProt Q96HC4 2-596, looked up)", "PDZ and LIM domain protein 5": "SNYSVSLVGPAPWGFRLQGGKDFNMPLTISSLKDGGKAAQANVRIGDVVLSIDGINAQGMTHLEAQNKIKGCTGSLNMTLQRASAAPKPEPVPVQKGEPKEVVKPVPITSPAVSKVTSTNNMAYNKAPRPFGSVSSPKVTSIPSPSSAFTPAHATTSSHASPSPVAAVTPPLFAASGLHANANLSADQSPSALSAGKTAVNVPRQPTVTSVCSETSQELAEGQRRGSQGDSKQQNGPPRKHIVERYTEFYHVPTHSDASKKRLIEDTEDWRPRTGTTQSRSFRILAQITGTEHLKESEADNTKKANNSQEPSPQLASSVASTRSMPESLDSPTSGRPGVTSLTAAAAFKPVGSTGVIKSPSWQRPNQGVPSTGRISNSATYSGSVAPANSALGQTQPSDQDTLVQRAEHIPAGKRTPMCAHCNQVIRGPFLVALGKSWHPEEFNCAHCKNTMAYIGFVEEKGALYCELCYEKFFAPECGRCQRKILGEVISALKQTWHVSCFVCVACGKPIRNNVFHLEDGEPYCETDYYALFGTICHGCEFPIEAGDMFLEALGYTWHDTCFVCSVCCESLEGQTFFSKKDKPLCKKHAHSVNF"}, "B4": {"name": "NID2 (protein, UniProt Q14112 31-1375, looked up)", "Nidogen-2": "LHPDELFPHGESWGDQLLQEGDDESSAVVKLANPLHFYEARFSNLYVGTNGIISTQDFPRETQYVDYDFPTDFPAIAPFLADIDTSHGRGRVLYREDTSPAVLGLAARYVRAGFPRSARFTPTHAFLATWEQVGAYEEVKRGALPSGELNTFQAVLASDGSDSYALFLYPANGLQFLGTRPKESYNVQLQLPARVGFCRGEADDLKSEGPYFSLTSTEQSVKNLYQLSNLGIPGVWAFHIGSTSPLDNVRPAAVGDLSAAHSSVPLGRSFSHATALESDYNEDNLDYYDVNEEEAEYLPGEPEEALNGHSSIDVSFQSKVDTKPLEESSTLDPHTKEGTSLGEVGGPDLKGQVEPWDERETRSPAPPEVDRDSLAPSWETPPPYPENGSIQPYPDGGPVPSEMDVPPAHPEEEIVLRSYPASGHTTPLSRGTYEVGLEDNIGSNTEVFTYNAANKETCEHNHRQCSRHAFCTDYATGFCCHCQSKFYGNGKHCLPEGAPHRVNGKVSGHLHVGHTPVHFTDVDLHAYIVGNDGRAYTAISHIPQPAAQALLPLTPIGGLFGWLFALEKPGSENGFSLAGAAFTHDMEVTFYPGEETVRITQTAEGLDPENYLSIKTNIQGQVPYVSANFTAHISPYKELYHYSDSTVTSTSSRDYSLTFGAINQTWSYRIHQNITYQVCRHAPRHPSFPTTQQLNVDRVFALYNDEERVLRFAVTNQIGPVKEDSDPTPGNPCYDGSHMCDTTARCHPGTGVDYTCECASGYQGDGRNCVDENECATGFHRCGPNSVCINLPGSYRCECRSGYEFADDRHTCILITPPANPCEDGSHTCAPAGQARCVHHGGSTFSCACLPGYAGDGHQCTDVDECSENRCHPAATCYNTPGSFSCRCQPGYYGDGFQCIPDSTSSLTPCEQQQRHAQAQYAYPGARFHIPQCDEQGNFLPLQCHGSTGFCWCVDPDGHEVPGTQTPPGSTPPHCGPSPEPTQRPPTICERWRENLLEHYGGTPRDDQYVPQCDDLGHFIPLQCHGKSDFCWCVDKDGREVQGTRSQPGTTPACIPTVAPPMVRPTPRPDVTPPSVGTFLLYTQGQQIGYLPLNGTRLQKDAAKTLLSLHGSIIVGIDYDCRERMVYWTDVAGRTISRAGLELGAEPETIVNSGLISPEGLAIDHIRRTMYWTDSVLDKIESALLDGSERKVLFYTDLVNPRAIAVDPIRGNLYWTDWNREAPKIETSSLDGENRRILINTDIGLPNGLTFDPFSKLLCWADAGTKKLECTLPDGTGRRVIQNNLKYPFSIVSYADHFYHTDWRRDGVVSVNKHSGQFTDEYLPEQRSHLYGITAVYPYCPTGRK"}, "B5": {"name": "PCYT2 (protein, UniProt Q99447 1-389, looked up)", "Ethanolamine-phosphate …": "MIRNGRGAAGGAEQPGPGGRRAVRVWCDGCYDMVHYGHSNQLRQARAMGDYLIVGVHTDEEIAKHKGPPVFTQEERYKMVQAIKWVDEVVPAAPYVTTLETLDKYNCDFCVHGNDITLTVDGRDTYEEVKQAGRYRECKRTQGVSTTDLVGRMLLVTKAHHSSQEMSSEYREYADSFGKCPGGRNPWTGVSQFLQTSQKIIQFASGKEPQPGETVIYVAGAFDLFHIGHVDFLEKVHRLAERPYIIAGLHFDQEVNHYKGKNYPIMNLHERTLSVLACRYVSEVVIGAPYAVTAELLSHFKVDLVCHGKTEIIPDRDGSDPYQEPKRRGIFRQIDSGSNLTTDLIVQRIITNRLEYEARNQKKEAKELAFLEAARQQAAQPLGERDGDF"}, "B6": {"name": "PICK1 (protein, UniProt Q9NRD5 1-415, looked up)", "PRKCA-binding protein": "MFADLDYDIEEDKLGIPTVPGKVTLQKDAQNLIGISIGGGAQYCPCLYIVQVFDNTPAALDGTVAAGDEITGVNGRSIKGKTKVEVAKMIQEVKGEVTIHYNKLQADPKQGMSLDIVLKKVKHRLVENMSSGTADALGLSRAILCNDGLVKRLEELERTAELYKGMTEHTKNLLRAFYELSQTHRAFGDVFSVIGVREPQPAASEAFVKFADAHRSIEKFGIRLLKTIKPMLTDLNTYLNKAIPDTRLTIKKYLDVKFEYLSYCLKVKEMDDEEYSCIALGEPLYRVSTGNYEYRLILRCRQEARARFSQMRKDVLEKMELLDQKHVQDIVFQLQRLVSTMSKYYNDCYAVLRDADVFPIEVDLAHTTLAYGLNQEEFTDGEEEEEEEDTAAGEPSRDTRGAAGPLDKGGSWCDS"}},
  "data": [
    {"biological_target": "T1, HCV ORFs (Gal4-DB fusions) (Hepatitis C virus genotype 1b, UniProt Q9WMX2)", "T1 construct": "expressed in transfected cells; host or cells: Saccharomyces cerevisiae MAV203 (IMAP1) / AH109 (IMAP2)", "T1 sequence (Q9WMX2 1027-1657)": "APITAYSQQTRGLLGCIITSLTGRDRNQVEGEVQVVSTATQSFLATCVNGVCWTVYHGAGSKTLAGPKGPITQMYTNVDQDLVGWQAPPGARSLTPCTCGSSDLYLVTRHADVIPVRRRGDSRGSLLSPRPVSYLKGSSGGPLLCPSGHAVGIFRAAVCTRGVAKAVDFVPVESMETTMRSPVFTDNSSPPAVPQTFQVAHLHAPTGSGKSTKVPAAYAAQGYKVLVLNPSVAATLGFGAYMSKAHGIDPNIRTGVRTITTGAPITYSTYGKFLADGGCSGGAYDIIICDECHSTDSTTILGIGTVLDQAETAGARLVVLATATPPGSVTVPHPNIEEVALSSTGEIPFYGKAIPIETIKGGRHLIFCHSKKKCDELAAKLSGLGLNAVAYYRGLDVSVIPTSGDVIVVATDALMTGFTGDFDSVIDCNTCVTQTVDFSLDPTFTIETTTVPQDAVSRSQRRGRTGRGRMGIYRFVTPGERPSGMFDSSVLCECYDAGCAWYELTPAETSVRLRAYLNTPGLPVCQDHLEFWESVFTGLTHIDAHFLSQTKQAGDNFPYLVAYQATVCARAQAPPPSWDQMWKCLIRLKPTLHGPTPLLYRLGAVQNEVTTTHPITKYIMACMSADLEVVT", "assay": "not given", "type": "binding, HCV genotype 1b, isolate con1", "conditions": "HCV protein NS3 as bait; human protein as prey", "values": [
      {"molecule": "B1", "IMAP Y2H IMAP1 (number of IST)": 2, "IMAP Y2H IMAP2 (number of IST)": 11},
      {"molecule": "B2", "IMAP Y2H IMAP1 (number of IST)": 3},
      {"molecule": "B3", "IMAP Y2H IMAP1 (number of IST)": 1},
      {"molecule": "B4", "IMAP Y2H IMAP1 (number of IST)": 2},
      {"molecule": "B5", "IMAP Y2H IMAP1 (number of IST)": 1},
      {"molecule": "B6", "IMAP Y2H IMAP1 (number of IST)": 3}
    ]},
    {"test_system": "HCV ORFs (Gal4-DB fusions)", "assay": "not given", "type": "binding, HCV genotype 1b, isolate con1", "conditions": "human protein listed by gene symbol; the value names the HCV protein it interacts with", "values": [
      {"molecule": "B1", "Interaction with viral protein": "NS3"},
      {"molecule": "B2", "Interaction with viral protein": "NS3"},
      {"molecule": "B3", "Interaction with viral protein": "NS3"},
      {"molecule": "B4", "Interaction with viral protein": "NS3"},
      {"molecule": "B5", "Interaction with viral protein": "NS3"},
      {"molecule": "B6", "Interaction with viral protein": "NS3"}
    ]},
    {"biological_target": "T2, HCV proteins (Hepatitis C virus genotype 1b, UniProt Q9WMX2)", "T2 construct": "expressed in transfected cells", "T2 sequence (Q9WMX2 1027-1657)": "as above", "assay": "Validation by Y2H pairwise matrices;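 also: yeast two-hybrid pairwise tests of interactions first found in Y2H screens of HCV bait proteins against human cDNA libraries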", "type": "binding", "conditions": "validation of interaction with HCV protein NS3", "values": [
      {"molecule": "B1", "Y2H matrices": "+"},
      {"molecule": "B2", "Y2H matrices": "+"},
      {"molecule": "B3", "Y2H matrices": "+"},
      {"molecule": "B4", "Y2H matrices": "+"},
      {"molecule": "B5", "Y2H matrices": "+"},
      {"molecule": "B6", "Y2H matrices": "+"}
    ]}
  ]
}
